Measurements from paper PMC11413682.

Assays:
[1] = target: CUL2^ZYG11B (residues 490–728) (human) (UniProt Q9C0D3); assay: ITC; MicroCal iTC200; peptides (0.5–1 mmol/L) in the syringe, CUL2^ZYG11B(490–728) (0.03 mmol/L) in the cell; 18 injections of 2 μL; repeated 3 times
[2] = target: CUL2^ZYG11B (residues 490–728) (human) (UniProt Q9C0D3); assay: ITC; SNX11-degron peptide titrated into CUL2^ZYG11B that was pre-incubated with the ORF10 peptide (pre-formed ZYG11B/ORF10 N5 complex)

Chain of CUL2^ZYG11B (residues 490–728) (human) (Q9C0D3 490-728): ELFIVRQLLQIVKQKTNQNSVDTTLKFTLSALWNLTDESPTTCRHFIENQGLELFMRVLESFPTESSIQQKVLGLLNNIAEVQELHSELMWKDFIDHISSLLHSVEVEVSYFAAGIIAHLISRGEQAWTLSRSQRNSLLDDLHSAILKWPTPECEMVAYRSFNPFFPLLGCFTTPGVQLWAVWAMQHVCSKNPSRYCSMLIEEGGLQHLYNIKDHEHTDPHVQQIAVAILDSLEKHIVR

Substance	Kd [1] [µM]	fold lower affinity for CUL2^ZYG11B pre-bound to the ORF10 peptide than for CUL2^ZYG11B alone [2] [fold]
SARS-CoV-2 ORF10 N3 peptide	14.5	–
SARS-CoV-2 ORF10 N4 peptide	5.18	–
SNX11-degron peptide	–	13
